# Laboratory results as given in publication PMC1665450, “Molecular modeling and characterization of Vibrio cholerae transcription regulator HlyU” (BMC Structural Biology, 2006).
# B1: Vibrio cholerae transcription regulator HlyU (natural protein)
# chain: MPYLKGAPMNLQEMEKNSAKAVVLLKAMANERRLQILCMLLDNELSVGELSSRLELSQSALSQHLAWLRRDGLVNTRKEAQTVFYTLSSTEVKAMIELLHRLYCQANQ
# notes: also called Vc-HlyU; not shown: His6, N-terminal, cleaved
# Molecular target: the molecule itself
# Assay: not stated; unpublished results (Saha & Chakrabarti); HlyU after cleavage of the N-terminal His6-tag
protein,measurement,value
B1,stoichiometry N,2
